Key:
[1] = target: cytochrome c oxidase (COX), monomeric (bovine (endogenous in bovine heart mitochondria)) (UniProt P68530); test: complexome profiling
[2] = target: Apoptosis-inducing factor 1 (AIFM1) (bovine (endogenous in bovine heart mitochondria)); test: complexome profiling

UniProt P68530, sequence (P68530 whole entry, looked up): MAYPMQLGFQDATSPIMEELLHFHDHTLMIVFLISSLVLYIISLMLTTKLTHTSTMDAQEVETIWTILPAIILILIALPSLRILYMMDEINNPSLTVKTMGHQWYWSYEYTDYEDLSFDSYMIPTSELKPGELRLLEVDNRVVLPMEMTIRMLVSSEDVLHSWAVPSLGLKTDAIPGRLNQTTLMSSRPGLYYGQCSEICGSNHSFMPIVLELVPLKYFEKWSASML

**Q.** Which percent of monomeric COX engaged in the complex [1] does the source give for “Apoptosis-inducing factor 1 (AIFM1) (natural protein)” here?
**A.** 10%

**Q.** And the stoichiometry N [2]?
**A.** 2

Reference: article PMC8488679
